Measurements from US20200207850A1 (MacroGenics, published 2020).

B1: B7-H3 mAb 1/CD8 mAb 1/CD3 mAb 2 Tri-Specific Binding Molecule (other)
chain 1: DVQINQSPSFLAASPGETITINCRTSRSISQYLAWYQEKPGKTNKLLIYSGSTLQSGIPSRFSGSGSGTDFTLTISGLEPEDFAMYYCQQHNENPLTFGAGTKLELRGGGSGGGGQVQLVQSGAEVKKPGASVKVSCKASGYTFTSYWMQWVRQAPGQGLEWMGTIYPGDGDTRYTQKFKGRVTITADKSTSTAYMELSSLRSEDTAVYYCARRGIPRLWYFDVWGQGTTVTVSSGGCGGGEVAALEKEVAALEKEVAALEKEVAALEKGGGDKTHTCPPCPAPEAAGGPSVFLFPPKPKDTLMISRTPEVTCVVVDVSHEDPEVKFNWYVDGVEVHNAKTKPREEQYNSTYRVVSVLTVLHQDWLNGKEYKCKVSNKALPAPIEKTISKAKGQPREPQVYTLPPSREEMTKNQVSLWCLVKGFYPSDIAVEWESNGQPENNYKTTPPVLDSDGSFFLYSKLTVDKSRWQQGNVFSCSVMHEALHNHYTQKSLSLSPGK
chain 2: DIQMTQSPSSLSASVGDRVTITCRASQDISNYLNWYQQKPGKAPKLLIYYTSRLHSGVPSRFSGSGSGTDFTLTISSLQPEDIATYYCQQGNTLPPTFGGGTKLEIKGGGSGGGGEVQLQQSGAELVKPGASVKLSCTASGFNIKDTYIHFVRQRPEQGLEWIGRIDPANDNTLYASKFQGKATITADTSSNTAYMHLCSLTSGDTAVYYCGRGYGYYVFDHWGQGTTLTVSSGGCGGGKVAALKEKVAALKEKVAALKEKVAALKE
heavy: EVQLVESGGGLVQPGGSLRLSCAASGFTFSTYAMNWVRQAPGKGLEWVGRIRSKYNNYATYYADSVKDRFTISRDDSKNSLYLQMNSLKTEDTAVYYCVRHGNFGNSYVSWFAYWGQGTLVTVSSASTKGPSVFPLAPSSKSTSGGTAALGCLVKDYFPEPVTVSWNSGALTSGVHTFPAVLQSSGLYSLSSVVTVPSSSLGTQTYICNVNHKPSNTKVDKRVEPKSCDKTHTCPPCPAPEAAGGPSVFLFPPKPKDTLMISRTPEVTCVVVDVSHEDPEVKFNWYVDGVEVHNAKTKPREEQYNSTYRVVSVLTVLHQDWLNGKEYKCKVSNKALPAPIEKTISKAKGQPREPQVYTLPPSREEMTKNQVSLSCAVKGFYPSDIAVEWESNGQPENNYKTTPPVLDSDGSFFLVSKLTVDKSRWQQGNVFSCSVMHEALHNRYTQKSLSLSPGK
light: QAVVTQEPSLTVSPGGTVTLTCRSSTGAVTTSNYANWVQQKPGQAPRGLIGGTNKRAPWTPARFSGSLLGGKAALTITGAQAEDEADYYCALWYSNLWVFGGGTKLTVLGRTVAAPSVFIFPPSDEQLKSGTASVVCLLNNFYPREAKVQWKVDNALQSGNSQESVTEQDSKDSTYSLSSTLTLSKADYEKHKVYACEVTHQGLSSPVTKSFNRGEC
B2: ROR1 mAb 1/CD3 mAb 2/CD8 mAb 2 Tri-Specific Binding Molecule (other)
chain 1: QLVLTQSPSASASLGSSVKLTCTLSSGHKTDTIDWYQQQPGKAPRYLMKLEGSGSYNKGSGVPDRFGSGSSSGADRYLTISSLQSEDEADYYCGTDYPGNYLFGGGTQLTVLGGGGSGGGGEVQLVESGGGLVQPGGSLRLSCAASGFTFSTYAMNWVRQAPGKGLEWVGRIRSKYNNYATYYADSVKGRFTISRDDSKNSLYLQMNSLKTEDTAVYYCVRHGNFGNSYVSWFAYWGQGTLVTVSSGGCGGGEVAALEKEVAALEKEVAALEKEVAALEKGGGDKTHTCPPCPAPEAAGGPSVFLFPPKPKDTLMISRTPEVTCVVVDVSHEDPEVKFNWYVDGVEVHNAKTKPREEQYNSTYRVVSVLTVLHQDWLNGKEYKCKVSNKALPAPIEKTISKAKGQPREPQVYTLPPSREEMTKNQVSLWCLVKGFYPSDIAVEWESNGQPENNYKTTPPVLDSDGSFFLYSKLTVDKSRWQQGNVFSCSVMHEALHNHYTQKSLSLSPGK
chain 2: QAVVTQEPSLTVSPGGTVTLTCRSSTGAVTTSNYANWVQQKPGQAPRGLIGGTNKRAPWTPARFSGSLLGGKAALTITGAQAEDEADYYCALWYSNLWVFGGGTKLTVLGGGGSGGGGQEQLVESGGGLVQPGGSLRLSCAASGFTFSDYYMSWVRQAPGKGLEWVATIYPSSGKTYYADSVKGRFTISSDNAKNSLYLQMNSLRAEDTAVYYCARDSYADDAALFDIWGQGTTVTVSSGGCGGGKVAALKEKVAALKEKVAALKEKVAALKE
heavy: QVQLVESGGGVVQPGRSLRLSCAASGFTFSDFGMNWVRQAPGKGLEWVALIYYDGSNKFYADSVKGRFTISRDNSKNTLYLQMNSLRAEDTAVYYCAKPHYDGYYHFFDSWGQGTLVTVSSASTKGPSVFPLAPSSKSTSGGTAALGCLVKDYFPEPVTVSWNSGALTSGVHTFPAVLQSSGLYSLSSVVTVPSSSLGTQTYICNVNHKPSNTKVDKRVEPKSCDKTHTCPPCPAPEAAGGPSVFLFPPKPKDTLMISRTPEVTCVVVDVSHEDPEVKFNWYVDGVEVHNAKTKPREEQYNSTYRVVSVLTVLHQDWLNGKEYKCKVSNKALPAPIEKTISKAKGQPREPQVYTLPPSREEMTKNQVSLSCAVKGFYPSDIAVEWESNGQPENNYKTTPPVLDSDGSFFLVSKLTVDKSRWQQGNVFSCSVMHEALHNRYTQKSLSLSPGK
light: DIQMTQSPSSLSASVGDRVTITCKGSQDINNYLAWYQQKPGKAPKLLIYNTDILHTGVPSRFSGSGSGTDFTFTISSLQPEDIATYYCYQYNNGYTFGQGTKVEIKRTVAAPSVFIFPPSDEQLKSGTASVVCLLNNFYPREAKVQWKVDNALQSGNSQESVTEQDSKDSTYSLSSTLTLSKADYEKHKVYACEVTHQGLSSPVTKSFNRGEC

What was measured:
[1] = molecular target: T1, B7-H3 on A498 and JIMT-1 target cells (UniProt Q5ZPR3 29-534, limits assumed); assay: cell-based or functional assay
T1 sequence (looked up): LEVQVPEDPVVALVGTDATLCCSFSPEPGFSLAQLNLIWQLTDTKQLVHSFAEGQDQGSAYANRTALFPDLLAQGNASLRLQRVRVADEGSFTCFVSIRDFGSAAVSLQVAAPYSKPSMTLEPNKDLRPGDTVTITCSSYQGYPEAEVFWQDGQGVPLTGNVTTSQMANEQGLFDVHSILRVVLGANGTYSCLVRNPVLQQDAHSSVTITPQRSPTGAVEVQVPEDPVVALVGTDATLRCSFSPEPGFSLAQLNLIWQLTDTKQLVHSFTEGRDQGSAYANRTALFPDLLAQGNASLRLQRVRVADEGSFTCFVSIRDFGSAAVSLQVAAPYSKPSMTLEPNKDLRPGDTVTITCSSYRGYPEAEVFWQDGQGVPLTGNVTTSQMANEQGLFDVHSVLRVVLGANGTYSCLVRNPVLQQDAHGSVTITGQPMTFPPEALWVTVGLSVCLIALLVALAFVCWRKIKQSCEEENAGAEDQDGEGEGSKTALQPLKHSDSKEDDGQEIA

[2] = molecular target: ROR1 on JIMT-1 and A549 target cells (UniProt Q01973 30-937, limits assumed); assay: cell-based or functional assay

| Binder | EC50 (nM) of killing, CD4+ effector cells, JIMT1-luc target cells, E:T 5:1 [1] | EC50 (nM) of killing, CD8+ effector cells, JIMT1-luc target cells, E:T 5:1 [1] | EC50 (nM) of killing, PanT effector cells, JIMT1-luc target cells, E:T 5:1 [1] | EC50 (nM) of killing, CD4+ effector cells, JIMT1-luc target cells, E:T 5:1 [2] | EC50 (nM) of killing, CD8+ effector cells, JIMT1-luc target cells, E:T 5:1 [2] | EC50 (nM) of killing, PanT effector cells, JIMT1-luc target cells, E:T 5:1 [2] |
| --- | --- | --- | --- | --- | --- | --- |
| B1 | 1.1 nM | 0.412 nM | 0.535 nM | – | – | – |
| B2 | – | – | – | 0.277 nM | 0.0021 nM | 0.0057 nM |
